Experimental data taken from paper PMC7083938 (2020).

What was measured:
Robo1 FN1 mouse = target: T1, Robo1 FN1 mouse (Mus musculus (Mouse), UniProt O89026); experiment: SPR equilibrium
T1 chain: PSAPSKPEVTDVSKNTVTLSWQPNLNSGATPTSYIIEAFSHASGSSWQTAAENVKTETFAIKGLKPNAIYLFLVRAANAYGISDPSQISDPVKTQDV

Robo3 FN1 mouse = target: T2, Robo3 FN1 mouse (Mus musculus (Mouse), UniProt Q9Z2I4); experiment: SPR equilibrium
T2 chain: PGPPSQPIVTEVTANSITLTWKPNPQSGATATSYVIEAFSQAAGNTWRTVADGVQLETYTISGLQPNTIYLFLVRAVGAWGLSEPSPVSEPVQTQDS

Kd (Robo1 FN1 mouse): 13.8 µM | Kd (Robo3 FN1 mouse): 0.71 µM
B1: NELL2 mouse (protein)
chain: DIDECAEGRHYCRENTMCVNTPGSFMCICKTGYIRIDDYSCTEHDECLTNQHNCDENALCFNTVGGHNCVCKPGYTGNGTTCK
